Patent US20120213785A1
Blank lines part the entries; values can stand above or below the molecule they belong to.

Key:
[1] = molecular target: human Notch3 receptor, full-length (human) (UniProt Q9UM47); test: FACS on 293T cells expressing Notch3 (Notch3/Hyg)
[2] = molecular target: Notch3-LD/Fc fusion protein (human Notch3 LIN12/dimerization domain fused to human gamma 1 Fc) (human) [IgG part: P01857]; test: ELISA on Notch3-LD/Fc
[3] = molecular target: Notch3-LD/Fc fusion protein (human Notch3 LIN12/dimerization domain fused to human gamma 1 Fc) (human) [IgG part: P01857]; test: ELISA, plate coated with Notch3-LD/Fc, hybridoma supernatant
[4] = molecular target: human Notch3 receptor, full-length (human) (UniProt Q9UM47); test: FACS on Sup-T1 cells naturally expressing Notch3
Notch3-D2/Fc (human) = Notch3-D2/Fc (human) (UniProt Q9UM47); test: ELISA on Notch3-domain/Fc fusion proteins
Notch3-D1/Fc (human) = Notch3-D1/Fc (human) (UniProt Q9UM47); test: ELISA on Notch3-domain/Fc fusion proteins

human Notch3 receptor, full-length (human), sequence (Q9UM47 40-2321 A2223V limits assumed): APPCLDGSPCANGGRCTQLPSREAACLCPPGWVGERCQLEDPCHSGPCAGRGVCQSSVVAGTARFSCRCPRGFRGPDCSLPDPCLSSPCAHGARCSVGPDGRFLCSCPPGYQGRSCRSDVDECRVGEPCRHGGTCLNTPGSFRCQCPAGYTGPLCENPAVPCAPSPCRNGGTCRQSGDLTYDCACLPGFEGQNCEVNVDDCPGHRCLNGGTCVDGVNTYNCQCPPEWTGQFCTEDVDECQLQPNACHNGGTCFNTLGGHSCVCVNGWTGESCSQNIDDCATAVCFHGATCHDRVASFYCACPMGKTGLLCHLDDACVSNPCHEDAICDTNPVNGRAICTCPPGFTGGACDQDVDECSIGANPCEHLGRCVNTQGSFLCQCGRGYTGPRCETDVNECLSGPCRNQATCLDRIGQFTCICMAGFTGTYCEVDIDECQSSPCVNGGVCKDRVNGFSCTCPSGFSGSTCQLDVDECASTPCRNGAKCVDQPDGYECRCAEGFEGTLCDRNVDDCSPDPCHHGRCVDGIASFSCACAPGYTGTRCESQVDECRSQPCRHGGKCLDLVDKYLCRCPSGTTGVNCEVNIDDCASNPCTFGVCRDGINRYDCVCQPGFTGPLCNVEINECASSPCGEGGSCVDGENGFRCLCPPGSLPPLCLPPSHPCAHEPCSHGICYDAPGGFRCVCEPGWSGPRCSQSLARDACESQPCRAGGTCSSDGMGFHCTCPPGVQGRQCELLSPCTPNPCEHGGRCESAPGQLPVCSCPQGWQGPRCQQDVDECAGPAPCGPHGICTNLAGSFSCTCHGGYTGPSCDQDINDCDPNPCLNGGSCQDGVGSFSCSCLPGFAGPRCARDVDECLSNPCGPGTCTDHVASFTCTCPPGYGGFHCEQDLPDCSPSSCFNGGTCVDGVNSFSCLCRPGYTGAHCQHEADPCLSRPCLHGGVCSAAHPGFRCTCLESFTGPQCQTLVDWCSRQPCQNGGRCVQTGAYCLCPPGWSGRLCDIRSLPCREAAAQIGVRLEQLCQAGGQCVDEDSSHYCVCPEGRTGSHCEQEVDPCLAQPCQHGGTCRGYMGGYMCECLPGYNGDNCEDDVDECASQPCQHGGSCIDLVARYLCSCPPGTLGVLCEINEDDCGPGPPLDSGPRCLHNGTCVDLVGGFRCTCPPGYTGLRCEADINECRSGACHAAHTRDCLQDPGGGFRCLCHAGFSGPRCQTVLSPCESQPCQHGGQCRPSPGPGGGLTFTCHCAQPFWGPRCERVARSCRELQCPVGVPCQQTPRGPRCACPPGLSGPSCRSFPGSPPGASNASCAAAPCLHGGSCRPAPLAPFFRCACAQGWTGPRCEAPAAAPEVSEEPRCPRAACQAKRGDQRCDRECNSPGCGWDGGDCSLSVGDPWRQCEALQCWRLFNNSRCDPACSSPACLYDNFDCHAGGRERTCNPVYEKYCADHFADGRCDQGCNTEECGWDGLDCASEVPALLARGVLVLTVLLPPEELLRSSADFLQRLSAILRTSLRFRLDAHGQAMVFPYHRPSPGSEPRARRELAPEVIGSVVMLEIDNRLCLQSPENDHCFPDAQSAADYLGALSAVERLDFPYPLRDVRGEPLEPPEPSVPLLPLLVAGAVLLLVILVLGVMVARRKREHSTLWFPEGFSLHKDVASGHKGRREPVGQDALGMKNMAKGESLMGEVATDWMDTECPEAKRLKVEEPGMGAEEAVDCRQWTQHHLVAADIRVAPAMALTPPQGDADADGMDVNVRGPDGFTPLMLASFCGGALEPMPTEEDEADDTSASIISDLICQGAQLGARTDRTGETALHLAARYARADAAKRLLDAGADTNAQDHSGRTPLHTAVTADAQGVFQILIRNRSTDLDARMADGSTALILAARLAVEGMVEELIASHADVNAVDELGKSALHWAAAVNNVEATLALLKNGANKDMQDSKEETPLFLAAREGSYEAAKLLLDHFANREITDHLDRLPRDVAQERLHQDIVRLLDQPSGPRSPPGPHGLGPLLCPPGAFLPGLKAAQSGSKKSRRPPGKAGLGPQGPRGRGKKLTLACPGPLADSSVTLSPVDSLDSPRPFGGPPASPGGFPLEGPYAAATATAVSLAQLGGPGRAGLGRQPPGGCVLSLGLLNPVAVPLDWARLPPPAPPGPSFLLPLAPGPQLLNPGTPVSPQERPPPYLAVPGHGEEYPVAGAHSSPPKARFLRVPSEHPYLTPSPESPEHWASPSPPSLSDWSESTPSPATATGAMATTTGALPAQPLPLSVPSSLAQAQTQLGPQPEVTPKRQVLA
Notch3-LD/Fc fusion protein (human Notch3 LIN12/dimerization domain fused to human gamma 1 Fc) (human) [IgG part: P01857], sequence (P01857 other isoform, or with tags, fused parts or gaps limits assumed): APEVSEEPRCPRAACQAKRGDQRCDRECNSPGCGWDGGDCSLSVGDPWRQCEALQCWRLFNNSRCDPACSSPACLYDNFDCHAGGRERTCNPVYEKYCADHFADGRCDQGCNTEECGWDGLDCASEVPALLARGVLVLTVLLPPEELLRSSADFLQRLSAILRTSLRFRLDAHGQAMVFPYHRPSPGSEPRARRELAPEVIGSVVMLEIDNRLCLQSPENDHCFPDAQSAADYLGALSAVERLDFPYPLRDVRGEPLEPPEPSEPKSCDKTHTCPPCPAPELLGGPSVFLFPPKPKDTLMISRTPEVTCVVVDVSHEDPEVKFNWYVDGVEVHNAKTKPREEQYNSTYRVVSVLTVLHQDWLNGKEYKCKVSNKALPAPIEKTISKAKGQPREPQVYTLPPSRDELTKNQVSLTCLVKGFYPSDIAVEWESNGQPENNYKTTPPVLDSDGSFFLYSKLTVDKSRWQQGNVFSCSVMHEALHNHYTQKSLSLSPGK

- mean fluorescent intensity [1]: 24.2 MFI
- ELISA OD reading (mean) [2]: 0.063 OD
- ELISA OD reading (mean) [3]: 0.019 OD (450 nm)
- mean fluorescent intensity [4]: 24.5 MFI
Molecule: Control IgG1 MAb (antibody)

- ELISA OD reading (Notch3-D2/Fc (human)): 0.015 OD
- ELISA OD reading (Notch3-D1/Fc (human)): 0.015 OD
B1: anti-Notch3 monoclonal antibody MAb 256A-13 (antibody, IgG1, V domains shown)
VH: SQVQLQQSGAELAKPGTSVKMACKASGYTFTTHWMNWVKQRPGQGLEWIGTINPSNDFTDCNQKFKDKAILTADKSSSTAYMQLSSLTSEDSAIYYCASGLTARAWFAYWGQGTLVTVSAA
VL: RATISCRASQSVTTSNYSYMHWFQQKPGQPPKLLIKYASNLDSGVPARFSGSGSGTDFTLNIHPVEEEDTATFYCQHSWEIPYTFGGGTNLEIKRADAAPTV
